Measured values reported in patent US20120141480A1.

Assays:
[1] = molecular target: human factor D (purified from human serum) (human) (UniProt P00746); assay: cell-based or functional assay
[2] = molecular target: dog factor D (in dog serum) (dog); assay: cell-based or functional assay; settings: scale: times less effective than on human factor D

UniProt P00746, sequence (P00746 26-253 N180D): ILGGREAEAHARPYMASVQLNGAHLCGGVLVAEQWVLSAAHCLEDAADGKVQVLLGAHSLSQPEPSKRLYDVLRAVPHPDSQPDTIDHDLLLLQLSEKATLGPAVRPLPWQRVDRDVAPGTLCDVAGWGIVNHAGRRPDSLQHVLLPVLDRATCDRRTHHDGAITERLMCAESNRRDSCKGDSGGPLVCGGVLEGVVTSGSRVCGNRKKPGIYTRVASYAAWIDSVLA

Work on MAb 166-32 (antibody) yielded an alternative pathway hemolytic activity of plasma from an extracorporeal circuit with human whole blood (molar ratio (MAb:factor D)) [1] of 1.5, an inhibition of factor D dependent hemolysis of unsensitized rabbit RBCs (factor D depleted human serum reconstituted with purified factor D) [1] of 0.3 µg/mL and a molar ratio for inhibition of factor D dependent hemolysis (molar ratio (MAb 166-32 to factor D)) [1] of 0.5. It also gave a neutralization of dog factor D in hemolytic assays, against human factor D [2] greater than 10.
